# Reference: patent US20250136699A1 (JIANGSU BIOJETAY BIOTECHNOLOGY, published 2025)
# Like-named read-outs stand apart in the source and are kept apart here.
# T1: Rattus norvegicus FcRn-alpha (rat, UniProt P13599 23-298)
# T1 construct: Alpha chain alone; also called rFcRn; rat FcRn; not shown: His tag and Avi tag
# T1 sequence: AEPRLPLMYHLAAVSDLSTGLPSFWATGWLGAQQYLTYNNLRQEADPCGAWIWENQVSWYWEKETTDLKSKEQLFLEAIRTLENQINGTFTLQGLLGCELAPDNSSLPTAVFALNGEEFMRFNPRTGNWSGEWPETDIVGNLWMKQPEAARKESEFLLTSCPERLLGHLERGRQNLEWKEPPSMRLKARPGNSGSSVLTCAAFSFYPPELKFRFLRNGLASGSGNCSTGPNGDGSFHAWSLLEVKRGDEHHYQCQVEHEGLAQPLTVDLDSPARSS
# Assays:
# [1] = biological target: T2, Cynomolgus monkey FcRn-alpha (cynomolgus monkey, UniProt Q8SPV9 24-297, limits assumed); test: ELISA: cynoFcRn coated, antibody titrated, goat anti-human IgG Fab-HRP, OD450
# T2 construct: The printed entry looks like the full-length precursor (signal peptide, transmembrane and cytoplasmic parts); also called cynoFcRn; not shown: His tag and Avi tag
# T2 sequence (Q8SPV9 24-297 limits assumed): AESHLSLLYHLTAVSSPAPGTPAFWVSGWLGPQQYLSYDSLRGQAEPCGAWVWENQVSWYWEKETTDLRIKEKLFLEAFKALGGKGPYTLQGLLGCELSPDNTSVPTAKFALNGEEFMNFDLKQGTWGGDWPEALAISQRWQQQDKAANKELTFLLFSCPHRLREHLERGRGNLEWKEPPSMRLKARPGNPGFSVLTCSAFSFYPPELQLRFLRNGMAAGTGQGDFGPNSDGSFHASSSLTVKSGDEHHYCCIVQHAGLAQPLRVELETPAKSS
# [2] = biological target: T3, Human recombinant FCGRT & B2M Heterodimer Protein (hFcRn) (human, UniProt P55899 24-297; P61769 21-119); test: ELISA: hFcRn coated (1 ug/mL), antibody (IgG4) titrated, goat anti-human IgG Fab-HRP, OD450
# T3 construct: Bought protein; also called human FcRn
# T3 sequence (P55899 24-297 limits assumed, chain 1 of 2): as the sequence (Q8SPV9 24-297 limits assumed) above, with D39N, Q44E, S99G, G189S, N190S, M217L, T269S counted along it
# T3 sequence (P61769 21-119 limits assumed, chain 2 of 2): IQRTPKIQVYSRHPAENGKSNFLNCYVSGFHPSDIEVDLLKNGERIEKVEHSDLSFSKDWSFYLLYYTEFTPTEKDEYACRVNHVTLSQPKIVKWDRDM
# Description: (§1) hFcRn binding of purified full-length chimeric antibodies: The hFcRn antigen binding ELISA was performed on the purified full-length chimeric antibodies (reformatted as IgG4). Briefly, plates were coated overnight at 4° C. with 1 μg/mL of hFcRn (cat #CT009-H08H) in PBS. After removing the coating solution, the wells were blocked by adding blocking buffer and incubated at room temperature for 1 hour. Plates were then washed 6 times with wash buffer. Serial dilutions of purified antibodies in PBS were added to individual wells followed by incubation at room temperature for 1 hour. Plates were washed 6 times with wash buffer. […] Plates were incubated at 37° C. for 1 hour, washed 6 times with wash buffer, and developed for 5-10 minutes with 50 L/well of TMB substrate, then quenched with 2M H₂SO₄. […] The ELISA results (OD450) were analyzed, and the binding curves were generated by Graphpad PRISM.
# [3] = biological target: T4, human FcRn (human FCGRT and B2M) on stably transfected MDCK cells (human, UniProt P55899 24-365; P61769 21-119); test: cell-based or functional assay
# T4 sequence (P55899 24-365, chain 1 of 2): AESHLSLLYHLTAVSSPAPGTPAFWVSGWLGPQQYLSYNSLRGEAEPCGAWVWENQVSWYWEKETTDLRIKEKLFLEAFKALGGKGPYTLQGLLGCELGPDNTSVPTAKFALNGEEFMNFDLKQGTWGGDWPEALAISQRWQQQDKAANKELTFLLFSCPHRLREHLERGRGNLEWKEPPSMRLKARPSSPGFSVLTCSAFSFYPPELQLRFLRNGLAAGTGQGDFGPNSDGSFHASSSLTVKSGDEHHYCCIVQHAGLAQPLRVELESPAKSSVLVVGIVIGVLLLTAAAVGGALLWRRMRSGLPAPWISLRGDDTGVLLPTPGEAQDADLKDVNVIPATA
# T4 sequence (P61769 21-119, chain 2 of 2): as the sequence (P61769 21-119 limits assumed, chain 2 of 2) above
# human FCGRT [4] = biological target: T5, human FCGRT (human, UniProt P55899 24-297, biotinylated (Avi tag) in the blocking assays); test: ELISA: human FCGRT coated, antibody titrated, goat anti-human IgG Fab-HRP, OD450
# T5 construct: Alpha chain alone, expressed in Expi293 cells with His and Avi tags; also called FCGRT of human FcRn protein; biotinylated human FCGRT; not shown: His tag and Avi tag
# T5 sequence (P55899 24-297 limits assumed): as the sequence (Q8SPV9 24-297 limits assumed) above, with D39N, Q44E, S99G, G189S, N190S, M217L, T269S counted along it
# [5] = biological target: T1, Rattus norvegicus FcRn-alpha; test: ELISA: rFcRn coated, antibody titrated, goat anti-human IgG Fab-HRP, OD450
# Description: as §1
# (§2) Analysis of cross-reactivity to FcRn from different species: To examine whether the anti-FcRn antibodies bind to FcRn from different species, antigen binding ELISA assays were performed as described above except that cynoFcRn, mFcRn, or rFcRn was used in the assay instead of hFcRn.
# human B2M [6] = biological target: T6, human B2M (human, UniProt P61769 21-119, limits assumed); test: ELISA: human B2M coated, antibody titrated, OD450
# T6 construct: also called beta-2-microglobulin; not shown: His tag and Avi tag
# T6 sequence (P61769 21-119 limits assumed): as the sequence (P61769 21-119 limits assumed, chain 2 of 2) above
# human FCGRT [7] = biological target: T5, human FCGRT; test: blocking ELISA: human IgG coated, biotinylated human FCGRT plus titrated antibody, SA-HRP, OD450; blocked ligand: human IgG
# Description: (§3) After removing the coating solution, the wells were blocked with a blocking buffer containing 1% BSA at room temperature for 1 hour. Plates were then washed with wash buffer. […] After incubation, 100 μL of SA-HRP (1:20,000) was added to each well and incubated for 1 hour at 37° C. The wells were washed before adding 100 μL/well of TMB and incubated for 5-10 minutes at 37° C. 2M H₂SO₄ was used to stop the reaction. […] The ELISA results (OD450) were analyzed, and the binding curves were generated by PRISM.
# human FCGRT [8] = biological target: T5, human FCGRT; test: ELISA: human FCGRT coated, antibody titrated, goat anti-human IgG Fab-HRP, OD450; remark: listed apart in the source
# [9] = biological target: human FcRn (human FCGRT and B2M) on stably transfected MDCK cells (human) (UniProt P55899); test: cell-based or functional assay
# human FcRn (human FCGRT and B2M) on stably transfected MDCK cells (human), sequence (P55899 24-365, chain 1 of 2): as the sequence (P55899 24-365, chain 1 of 2) above
# human FcRn (human FCGRT and B2M) on stably transfected MDCK cells (human), sequence (P61769 21-119, chain 2 of 2, further chain): as the sequence (P61769 21-119 limits assumed, chain 2 of 2) above
# human FCGRT [10] = biological target: T5, human FCGRT; test: ELISA: human FCGRT coated, antibody titrated, goat anti-human IgG Fab-HRP, OD450; remark: listed apart in the source
# human FCGRT [11] = biological target: T5, human FCGRT; test: competition ELISA: human IgG coated, biotinylated human FCGRT plus antibody, SA-HRP
# [12] = biological target: human FcRn (human FCGRT and B2M) on stably transfected MDCK cells (human) (UniProt P55899); test: cell-based or functional assay; remark: listed apart in the source
# human FCGRT [13] = biological target: T5, human FCGRT; test: competition ELISA: human IgG coated, biotinylated human FCGRT plus antibody, SA-HRP; remark: listed apart in the source
# [14] = biological target: Human recombinant FCGRT & B2M Heterodimer Protein (hFcRn) (human) (UniProt P55899); test: ELISA, hFcRn coated at 1 ug/mL, antibody titrated, anti-human IgG Fab-HRP
# Human recombinant FCGRT & B2M Heterodimer Protein (hFcRn) (human), sequence (P55899 24-297 limits assumed, chain 1 of 2): as the sequence (Q8SPV9 24-297 limits assumed) above, with D39N, Q44E, S99G, G189S, N190S, M217L, T269S counted along it
# Human recombinant FCGRT & B2M Heterodimer Protein (hFcRn) (human), sequence (P61769 21-119 limits assumed, chain 2 of 2, further chain): as the sequence (P61769 21-119 limits assumed, chain 2 of 2) above
# human B2M [15] = biological target: T6, human B2M; test: ELISA: human B2M coated, antibody titrated, OD450; remark: listed apart in the source
# Description: (§4) Measurement of the binding specificity of anti-FcRn antibodies to FCGRT and B2M by EILSA: Briefly, human FCGRT or B2M was coated on a 96-well plate at 4° C. overnight, after removing the coating solution, a blocking buffer containing 1% BSA was added into the plates followed by incubation at room temperature for 1 hour to block unspecific binding. Plates were then washed with wash buffer, and serial dilutions of anti-FcRn antibodies were added to the wells and incubated at room temperature for 1 hour. […] The wells were washed before adding 100 μL/well of TMB and incubated for 5-10 minutes at 37° C. 2M H₂SO₄ was used to stop the reaction. […] The ELISA results (OD450) were analyzed, and the binding curves were generated by Graphpad PRISM.
# [16] = biological target: T3, Human recombinant FCGRT & B2M …; test: ELISA on coated hFcRn, IgG4 antibody titrated
# Description: as §1
# [17] = biological target: T2, Cynomolgus monkey FcRn-alpha; test: ELISA on coated cynoFcRn, IgG4 antibody titrated
# Description: as §1, §2
# human FCGRT [18] = biological target: T5, human FCGRT; test: competition ELISA: human IgG coated, biotinylated human FCGRT plus antibody, SA-HRP; remark: listed apart in the source
# Description: as §3
# [19] = biological target: T3, Human recombinant FCGRT & B2M …; test: SPR, Biacore T200, antibody (IgG4) on CM5 chip, hFcRn in solution, pH 6.0
# Description: The anti-FcRn antibodies were stabilized on sensor chip CM5. The affinities for hFcRn of antibodies at various concentrations were measured. […] Using the SPR technology, the association and dissociation rates were measured, and binding affinity was determined.
# [20] = biological target: T4, human FcRn (human FCGRT and B2M) on …; test: cell-based or functional assay; remark: listed apart in the source
# human FCGRT [21] = biological target: T5, human FCGRT; test: ELISA on coated human FCGRT, IgG4 antibody titrated
# Description: as §4
binder,measurement,setting,value
"ZLP37 (antibody, V domains shown, Full-length chimeric antibody with human IgG1 or IgG4 heavy constant and human kappa or lambda light constant domain) VH: EVQLQQSGVELARPGASVKMSCKASGYTFSSYAMQWVKKRPGQGLEWIGYINPGTGYTNYNQKFKDKATLTADKSSSTAYMHLSSLTSEDSAVYFCARGGGLRGAMDYWGQGTSVTVSS VL: DIVLTQSPALMSASPGEKVTMTCSANSSVNYMYWYQQKPGSSPKLWIYSTSNLASGVPARFSGSGSGTSYSLTISSMEAEDAATYYCHQRSSYPWTFGGGTKLEIK",EC50 (read off the curve),[1],~6 nM
same,EC50 (read off the curve),[2],~9 nM
same,IgG Recycle IC50,[3],3.12 nM
same,EC50 (read off the curve),human FCGRT [4],~20 nM
same,binding result,[5],no binding (tested: about 700 nM (Log[Ab] about 2.8))
same,binding result,human B2M [6],no binding (tested: about 700 nM (Log[Ab] about 2.8))
same,IC50 (read off the curve),human FCGRT [7],~40 nM
"Rozanolixizumab (antibody, part only; not given: Constant regions, V domains shown, not shown: another chain or arm of the molecule) VH: EVPLVESGGGLVQPGGSLRLSCAVSGFTFSNYGMVWVRQAPGKGLEWVAYIDSDGDNTYYRDSVKGRFTISRDNAKSSLYLQMNSLRAEDTAVYYCTTGIVRPFLYWGQGTLVTVSS VL: DIQMTQSPSSLSASVGDRVTITCKSSQSLVGASGKTYLYWLFQKPGKAPKRLIYLVSTLDSGIPSRFSGSGSGTEFTLTISSLQPEDFATYYCLQGTHFPHTFGQGTKLEIK",EC50 (read off the curve),[1],0.2 nM
same,EC50 (read off the curve),human FCGRT [8],10 nM
same,IgG Recycle IC50,[9],7.8 nM
same,EC50 (read off the curve),human FCGRT [10],0.1 nM
same,IC50,human FCGRT [11],11.6 nM
same,IgG Recycle IC50,[12],11.8 nM
same,IC50,human FCGRT [13],10.9 nM
same,EC50,[14],1.04 nM
"ZLP1-3-2M (antibody, V domains shown) VH: QVQLQESGPGLVKPSETLSLTCTVTGYSFTSGYSWHWIRQPPGKGLEWIGYIHDSGGTNYNPSLKSRVTISRDTSKNQFSLKLSSVTAADTAVYYCAREENYRYFDVWGQGTLVTVSS VL: EIVLTQSPATLSLSPGERATLSCSASSSVSYMHWFQQKPGQSPRLLIYSTSNLASGIPARFSGSGSGTDFTLTISSLEPEDFAVYYCQQRSSYPPTFGQGTKVEIK",binding result,human B2M [15],no binding (tested: about 700 nM (Log[Ab] about 2.8))
same,EC50,[16],3.11 nM
same,EC50,[17],2.82 nM
same,IC50,human FCGRT [18],5.12 nM
same,Kd,[19],0.493 nM
same,koff,[19],0.00184 s⁻¹
same,kon,[19],3.73e+06 M⁻¹ s⁻¹
same,IgG Recycle IC50,[20],11.9 nM
same,EC50,human FCGRT [21],1.22 nM
